The values below come from patent US20260184780A1 (MONASH UNIVERSITY, published 2026).

The target in assay [1] is T1, human PAR4 on isolated human platelets (human, UniProt Q96RI0 18-385).
T1 sequence: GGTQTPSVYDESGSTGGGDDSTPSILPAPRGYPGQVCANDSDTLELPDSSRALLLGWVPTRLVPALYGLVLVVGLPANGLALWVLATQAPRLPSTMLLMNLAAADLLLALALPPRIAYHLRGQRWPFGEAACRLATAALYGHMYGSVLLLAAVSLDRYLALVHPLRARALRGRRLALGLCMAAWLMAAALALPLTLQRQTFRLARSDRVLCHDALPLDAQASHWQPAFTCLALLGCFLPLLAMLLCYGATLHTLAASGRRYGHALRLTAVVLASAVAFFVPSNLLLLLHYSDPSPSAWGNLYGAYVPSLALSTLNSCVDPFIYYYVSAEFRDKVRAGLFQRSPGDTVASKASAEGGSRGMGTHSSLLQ
The assay is described as follows: cell-based or functional assay.

The target in assay [2] is T1, human PAR4 on isolated human platelets. The assay is described as follows: flow cytometry on isolated human platelets.
For assay [3], the target named is T2, hPAR1 (Biotin) peptide (human, not fully specified; biotin on the C-terminal lysine (SKB)).
T2 construct: also called PAR1 peptide; PAR1 screening peptide
T2 peptide: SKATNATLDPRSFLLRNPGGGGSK
The assay is described as follows: ELISA, biotinylated peptide on streptavidin plate, absorbance 405 nm. The procedure:
(§1) Biotinylated peptides (hPAR1-4) were diluted in Wash buffer and allowed to bind to the blocked Streptavidin coated wells at 10 ug/ml (100 ul per well) for 1 hour at room temperature with gentle mixing. Wells were washed 3 times as above and purified anti-hPAR4 mAbs prepared at 10 ug/ml in Wash buffer were allowed to bind (100 ul/well) for 1 hour at room temperature with gentle mixing. The plate was washed 3 times as above and anti-mouse Fc conjugated to Alkaline phosphatase (AP) at 0.3 ug/ml (100 ul) was added to the wells for 1 hour as above. Wells were washed 3 times as above and developed with Alkaline Phosphatase substrate as described for the screening supernatant ELISA.
(§2) To further characterise the purified anti-hPAR4 mAb's the specificity of the mAbs to hPAR1, hPAR2, hPAR3 and hPAR4 biotinylated peptides was performed.
Background: ELISA stands for enzyme-linked immunosorbent assay.

The target in assay [4] is T3, hPAR2 (Biotin) peptide (human, not fully specified; biotin on the C-terminal lysine (SKB)).
T3 construct: also called PAR2 peptide; PAR2 screening peptide
T3 peptide: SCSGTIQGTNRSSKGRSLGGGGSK
The description is as above. How it is done: as §1, §2

Assay [5] concerns the target T4, hPAR3 (Biotin) peptide (human, biotin on the C-terminal lysine (SKB)).
T4 construct: also called PAR3 peptide; PAR3 screening peptide
T4 peptide: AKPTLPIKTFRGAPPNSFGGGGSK
Described as above. The procedure: as §1, §2

Another assay concerns the target T5, hPAR4 1-9 peptide (human).
T5 construct: Range counted on the hPAR4 immunising peptide; also called peptide 1-9
T5 peptide: GDDSTPSIL
The assay can be described thus: ELISA, peptide coated on the plate, purified mAb, background subtracted. How it is done: (§3) Briefly the peptides were coated onto a Nunc maxisorp ELISA plate at 10 ug/ml overnight in coating buffer (0.1 M sodium carbonate pH8.0). Purified mAbs diluted in PBS were used in place of supernatant.

Assay [6] addresses T6, hPAR4 (naked) peptide (human).
T6 construct: also called native PAR4 peptide; hPAR4 peptide
T6 peptide: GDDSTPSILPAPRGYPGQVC
The assay can be described thus: ELISA, purified mAb on hPAR4 peptide coated wells, anti-mouse Fc-AP, absorbance 405 nm. The procedure: The experiment was completed with purified mAbs diluted in PBS instead of hybridoma supernatants.
The reactivity of seven purified anti-hPAR4 mAbs was analysed by ELISA (see Table 4).

Assay [7] has as its target T1, human PAR4 on isolated human platelets. The assay is described as follows: cell-based or functional assay. The source holds these as a separate data set.
Assay [8] deals with T6, hPAR4 (naked) peptide. The assay is described as follows: ELISA, hybridoma supernatant.
The target of assay [9] is T2, hPAR1 (Biotin) peptide. The assay can be described thus: ELISA, hybridoma supernatant.
Assay [10] has as its target T4, hPAR3 (Biotin) peptide. The assay is described as follows: ELISA, hybridoma supernatant.
The target in assay [11] is T6, hPAR4 (naked) peptide. The assay can be described thus: ELISA, purified mAb on hPAR4 peptide.
The target of assay [12] is T7, hPAR4 (Biotin) peptide (human, biotin on the C-terminal lysine (SKB)).
T7 construct: also called hPAR4-biotinylated peptide; biotin-coupled human PAR4 peptide
T7 peptide: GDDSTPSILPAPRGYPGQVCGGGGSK
The assay can be described thus: SPR Biacore T200, biotin peptide on SA chip, whole mAb as analyte. The procedure:
(§4) The kinetics of the binding interaction between the mAbs and hPAR4 was measured using Surface Plasmon Resonance (SPR; Biacore) by two different methods: 1. Anti-mouse Fc mAb capture method and 2. Streptavidin (SA) chip to capture biotinylated peptide. The ka(on) rate and kd(off) rates and KD were measured and fitted to a Langmuir model using the Biacore evaluation software.
(In SPR one partner is held on a chip, and binding of the other changes the refractive index at the surface.)

Assay [13] has as its target T7, hPAR4 (Biotin) peptide. The assay is described as follows: SPR Bio-Rad ProteOn XPR36, biotin peptide captured, purified mAb as analyte.
For assay [14], the target named is T6, hPAR4 (naked) peptide. The assay is described as follows: SPR Biacore T200, mAb captured by anti-mouse Fc, hPAR4 peptide as analyte. How it is done: A series S CM5 sensor chip was activated with standard EDC/NHS amine coupling chemistry using the manufacturers recommended protocol with Goat anti-mouse IgG Fc. Anti-hPAR4 mAbs were captured at 1-2 ug/ml for 2 minutes at 10 ul/minute on flow cell 2 (FC2) and flow cell 1 (FC1) was used as a reference channel. […] Blank injections of buffer alone were also performed. All injections were performed in duplicate and in a random order.
as §4

For a further assay, the target named is T8, hPAR4 8-15 peptide (human).
T8 construct: Range counted on the hPAR4 immunising peptide; also called peptide 8-15; core peptide
T8 peptide: ILPAPRGY
The assay is described as follows: ELISA, peptide coated on the plate, purified mAb, background subtracted. How it is done: as §3

For the next assay, the target named is T9, hPAR4 11-20 peptide (human).
T9 construct: Range counted on the hPAR4 immunising peptide; the C-terminal cysteine was removed, so nine residues are given; also called peptide 11-20
T9 peptide: APRGYPGQV
The assay is described as above. The procedure: as §3

The target in assay [15] is T2, hPAR1 (Biotin) peptide. The assay is described as follows: ELISA, hybridoma supernatant on immobilised peptide, binding as fold above control. How it is done: (§5) Wells were then washed with an automated plate washer (300 μl 1×PBS, 3 times). […] Wells were washed as above. A set of substrate tablets (1×silver, 1×gold) into 20 ml of ddH₂O by shaking vigorously on the thermomixer for 6 mins at room temperature. 50 μl of substrate ([…]™ […] Tablets (Sigma-Aldrich, N2770-50SET)) was added into each well and incubated for 20-25 mins at room temperature. 50 μl of STOP solution (2M Sodium Hydroxide, Solid (NaOH) (Merck, Cas #1310-73-2)) was added into each well to stop the reaction. Absorbance was read at 405 nm immediately after adding STOP solution with the ELISA reader, using the ‘RdrOle4’ software.
(§6) In order to determine the specificity of the anti-hPAR4 clones to PAR4, ELISA screening was performed as described above.

In assay [16] the target is T3, hPAR2 (Biotin) peptide. The assay is described as above. The procedure: as §5, §6
For assay [17], the target named is T4, hPAR3 (Biotin) peptide. The assay is described as above. How it is done: as §5, §6
Assay [18] deals with T6, hPAR4 (naked) peptide. The assay is described as follows: ELISA, hybridoma supernatant.
Assay [19] has as its target T2, hPAR1 (Biotin) peptide. The assay can be described thus: ELISA, hybridoma supernatant.
The target in assay [20] is T4, hPAR3 (Biotin) peptide. The assay can be described thus: ELISA, hybridoma supernatant.
The target of another assay is T10, mPAR4 (naked) peptide (mouse).
T10 construct: T0021 says only 'mouse PAR4'; also called mouse PAR4
T10 peptide: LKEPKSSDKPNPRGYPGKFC
The assay is described as follows: ELISA, hybridoma supernatant.

A word on the EC50 (read off the curve): it is the concentration needed to bring the measured effect to its halfway point. Low readings indicate a more potent agent, high ones a less potent agent. By Kd is commonly meant a measure of binding affinity in units of concentration. Low values mean higher affinity, high ones lower affinity. The koff is the first-order rate constant of dissociation. Lower therefore signals slow dissociation. By kon is commonly meant a measure of how fast the partners come together.

Read-outs that look alike come from different tables or passages of the source. A value given as a limit tells only on which side of the number the result lay.

B1: 5F.RF3.A7b.C9 (antibody, IgG2b, V domains shown)
VH: QVQLVQSGAEVKKPGASVKVSCKTSAYTFTNYGISWVRQAPGQGLEWMGWISPYNGNTNYAQKLQGRVTMTTDTSTRTAYMELRSLRSDDTAVYYCAREYNRSSRGRYYYYGMDVWGQGTTVTVSS
VL: EIVLTQSPGTLSLSPGERATLSCRASQSVSSNYLAWYQKKPGQAPRLLISGASSRATGIPDRFSGSGSGTDFTLTISRLEPEDFAVYYCQQYGSSPWTFGQGTKVEIK
notes: also called MoB5F-RF3.A7b.C9; MoB5F F3
Regarding B1, in assay [1], the “platelet aggregation, % of control” value was < 50 % of control. The “GMFI at 10 ug/ml over isotype control” value in [2] was 53. Moreover, the binding result is “no binding (tested: 10 ug/ml)” with hPAR1 (Biotin) peptide [3], “no binding (tested: 10 ug/ml)” with hPAR2 (Biotin) peptide [4], “no binding (tested: 10 ug/ml)” with hPAR3 (Biotin) peptide [5] and “no binding” with hPAR4 1-9 peptide. Also, the “EC50 (read off the curve)” value in the assay with hPAR4 (naked) peptide [6] was ~0.1 µg/mL.

B2: 5A.RC3.F10b.H4b (antibody, IgG2a, V domains shown)
VH: QVQLVESGGGVVQPGRSLRLSCAASGFTLSNYGMHWVRQAPGKGLEWVSVIWYDGSNKHYADSVKGRFTISRDNSKNTLYLQMNSLRAEDTAVYYCARESIVEVLPPFDYWGQGTLVTVSS
VL: KIVLTQSPGTLSLSPGERVTLSCRASQRVRNNYLAWFQQKPGQAPRLFIYGASSRATGIPDRFSGSGSGTDFIFTISRLEPEDFAVYYCQQYGNSYTFGQGTKLEIK
notes: also called MoB5ARC3; MoB5A-RC3.F10b.H4b
As to B2, the “IC50 (ug/ml) for inhibition of platelet aggregation, 0.1 U/ml thrombin” value in assay [7] worked out at 1.6 µg/mL. Further, the “binding to PAR4 ratio” value with hPAR4 (naked) peptide [8] came out at 15.2 ratio. The “binding to PAR1 ratio” value with hPAR1 (Biotin) peptide [9] is 1 ratio. Moreover, in the assay with hPAR3 (Biotin) peptide [10], the “binding to PAR3 ratio” value is 1.1 ratio. Besides, the “ELISA Pos:Neg ratio” value with hPAR4 (naked) peptide [11] amounted to 13.9 ratio. The “GMFI at 10 ug/ml over isotype control” value in assay [2] is 39. The figures for the Kd with hPAR4 (Biotin) peptide [12], with hPAR4 (Biotin) peptide [13] and with hPAR4 (naked) peptide [14] were 0.32 nM, ~0.4 nM and 14.8 nM, respectively. Also, the dissociation rate constant (koff) in the assay with hPAR4 (Biotin) peptide [12] came out at 0.000417 s⁻¹; in the assay with hPAR4 (naked) peptide [14], 0.00487 s⁻¹. For the same molecule, the on-rate (kon) amounted to 1.32e+06 M⁻¹ s⁻¹ with hPAR4 (Biotin) peptide [12] and 330000 M⁻¹ s⁻¹ with hPAR4 (naked) peptide [14]. The binding result is listed as “no binding” with hPAR4 1-9 peptide; “binds” in the assay with hPAR4 8-15 peptide; “no binding” with hPAR4 11-20 peptide; “no binding” in the assay with hPAR1 (Biotin) peptide [15]; “no binding” with hPAR2 (Biotin) peptide [16]; “no binding” with hPAR3 (Biotin) peptide [17].

B3: 5H.RF2.A5b.D3.C2 (antibody, IgG2a, V domains shown)
VH: QVQLQQWGAGLLKPSETLALTCAVYGGSLSDYYWSWIRQPPGKGLEWIGEINHSGTTNYNPSLKSRVTISVDTSKKQFSLKLSSVTAADTAVYYCAIEYSNSRGYYYGMDVWGQGTTVTVSS
VL: DIQMTQSPSSLSASAGDRITITCRASQTISNYLNWYQQKPGKAPKLLIYAASSLQSGVPSRFSGSGSGTDFTLTISSLQPEDFASYYCRQNYNTPLTFGGGTKVEIK
notes: also called MoB5H F2
For the molecule B3, the “platelet aggregation, % of control” value in assay [1] is > 80 % of control. The “fold binding native vs KLH-linked PAR4 peptide” value with hPAR4 (naked) peptide [18] is 11.9 fold. In the assay with hPAR1 (Biotin) peptide [19], the “binding to PAR1 ratio” value turned out to be 1 ratio. For the same molecule, the “binding to PAR3 ratio” value with hPAR3 (Biotin) peptide [20] worked out at 0.9 ratio. Also, the “binding to mouse PAR4 ratio” value with mPAR4 (naked) peptide amounted to 10.4 ratio. Further, the “ELISA Pos:Neg ratio” value with hPAR4 (naked) peptide [11] is 8.5 ratio. Further, the Kd in the assay with hPAR4 (Biotin) peptide [12] was 0.61 nM; with hPAR4 (naked) peptide [14], 38 nM. The koff with hPAR4 (Biotin) peptide [12] was determined as 0.00111 s⁻¹; with hPAR4 (naked) peptide [14] it was 0.00227 s⁻¹. Besides, the results for the kon with hPAR4 (Biotin) peptide [12] and with hPAR4 (naked) peptide [14] were 1.84e+06 M⁻¹ s⁻¹ and 58400 M⁻¹ s⁻¹, respectively. For the same molecule, the binding result with hPAR1 (Biotin) peptide [3], with hPAR2 (Biotin) peptide [4] and with hPAR3 (Biotin) peptide [5] was “no binding (tested: 10 ug/ml)” each time.
